Assay results as given in the supplement of paper PMC6757056.
± gives the standard deviation of the averaged measurements.

B1: library; a variant is named by its letters at N, in order (parent)
chain: GCUGUCACCGGUGUAUUACCCUAGUGGUCGACCGGUCUGAUGAGUCUNNNNNNAGACGAAACAGC

Tests used:
hypoxanthine [1] = variants of: B1; test: normalized RNA/DNA level with ligand (relative to sTRSVctl = 100) (log10 (% of sTRSVctl)); ligand: hypoxanthine (xanthine aptamer); higher = less ribozyme self-cleavage, higher mRNA level; details: ligand concentration (+) RNA-Seq: 5 mM, HEK293T, reporter: mCherry (pCS4076), ligand present: yes
Method in brief: (§1)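 Library plasmids encoding reporter-linked ribozyme switches (mCherry, or eGFP for some folinic acid experiments) were transfected into HEK293T at 4 µg per 6-well well. Ligand, when used, was added 1 h before transfection. Total RNA was extracted with EDTA 72 h later, then reverse-transcribed, amplified, barcoded and sequenced. RNA level was RNA reads over DNA reads, divided by a spiked-in non-cleaving control (or the top 25 sequences), ×100, log10; only sequences with ≥100 DNA reads were kept.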

hypoxanthine [2] = variants of: B1; test: normalized RNA/DNA level without ligand (relative to sTRSVctl = 100) (log10 (% of sTRSVctl)); ligand: hypoxanthine (xanthine aptamer); higher = less ribozyme self-cleavage, higher mRNA level; details: HEK293T, reporter: mCherry (pCS4076), ligand present: no
Method in brief: as §1

| Variant | normalized RNA/DNA level with ligand (log10) (hypoxanthine [1]) | normalized RNA/DNA level without ligand (log10) (hypoxanthine [2]) |
| --- | --- | --- |
| CGACCA | 1.99 ± 0.045 | 1.85 ± 0.053 |
| AUCGCG | 1.863 ± 0.0079 | 1.409 ± 0.0031 |
| CUCUCA | 1.96 ± 0.0068 | 1.91 ± 0.027 |
| AUCCCU | 1.97 ± 0.042 | 1.9 ± 0.022 |
| GGACAG | 1.85 ± 0.055 | 1.468 ± 0.0059 |
| GAUCCA | 1.908 ± 0.0041 | 1.9 ± 0.03 |
| UGUCCG | 1.925 ± 0.0047 | 1.8 ± 0.017 |
| CCUCUU | 2.011 ± 0.018 | 1.9823 ± 0.00045 |
| UUUAAG | 1.915 ± 0.016 | 1.71 ± 0.043 |
| CGAUGC | 1.9 ± 0.07 | 1.829 ± 0.0038 |
| GCAAAA | 1.928 ± 0.015 | 1.79 ± 0.025 |
| UUGCAA | 1.92 ± 0.03 | 1.79 ± 0.048 |
| AGACCU | 1.92 ± 0.023 | 1.88 ± 0.044 |
| GUACCU | 1.985 ± 0.016 | 1.9131 ± 0.00047 |
| AAUGUC | 1.98 ± 0.064 | 1.921 ± 0.0048 |
| GUUCAU | 1.908 ± 0.016 | 1.783 ± 0.012 |
| UCAGCA | 1.99 ± 0.021 | 1.88 ± 0.03 |
| GGUCUC | 2.006 ± 0.016 | 1.96 ± 0.037 |
| GCCCAA | 1.94 ± 0.037 | 1.8 ± 0.021 |
| CUCCCA | 1.991 ± 0.0032 | 1.87 ± 0.046 |

| Variant | normalized RNA/DNA level with ligand (log10) (hypoxanthine [1]) | normalized RNA/DNA level without ligand (log10) (hypoxanthine [2]) |
| --- | --- | --- |
| GGGCGU | 2 ± 0.0057 | 1.96 ± 0.049 |
| GGCUGC | 1.92 ± 0.048 | 1.58 ± 0.039 |
| GGCCCC | 1.95 ± 0.12 | 1.97 ± 0.021 |
| CAGGAG | 1.91 ± 0.022 | 1.473 ± 0.012 |
| AGCGCC | 1.93 ± 0.034 | 1.86 ± 0.04 |
| CAAUGA | 1.92 ± 0.038 | 1.82 ± 0.051 |
| CGCCCC | 1.971 ± 0.013 | 1.922 ± 0.0052 |
| ACCCCC | 1.99 ± 0.16 | 1.879 ± 0.013 |
| UAGCCA | 1.93 ± 0.032 | 1.91 ± 0.082 |
| CAGGCC | 2 ± 0.027 | 2 ± 0.032 |
| CUUUAA | 1.92 ± 0.049 | 1.78 ± 0.054 |
| CCACCA | 1.97 ± 0.026 | 1.88 ± 0.046 |
| UGAAAA | 1.921 ± 0.0047 | 1.836 ± 0.015 |
| ACGGUC | 1.94 ± 0.039 | 1.87 ± 0.0091 |
| UGGACU | 1.93 ± 0.033 | 1.9 ± 0.032 |
| CUGUAA | 1.917 ± 0.017 | 1.713 ± 0.006 |
| CCGUUC | 1.96 ± 0.079 | 1.82 ± 0.099 |
| UAUAUU | 1.907 ± 0.0056 | 1.847 ± 0.0083 |
| GUGCUC | 1.909 ± 0.011 | 1.85 ± 0.034 |
| GUGCUA | 1.93 ± 0.017 | 1.75 ± 0.093 |

| Variant | normalized RNA/DNA level with ligand (log10) (hypoxanthine [1]) | normalized RNA/DNA level without ligand (log10) (hypoxanthine [2]) |
| --- | --- | --- |
| UACACC | 1.961 ± 0.0059 | 1.9 ± 0.027 |
| UUACCA | 1.95 ± 0.038 | 1.871 ± 0.008 |
| CUUAGA | 1.984 ± 0.0081 | 1.852 ± 0.0069 |
| GAUCGU | 1.96 ± 0.11 | 1.838 ± 0.013 |
| GCAACU | 1.97 ± 0.042 | 1.96 ± 0.028 |
| CCUUCC | 1.99 ± 0.033 | 1.963 ± 0.016 |
| UACUCC | 2 ± 0.058 | 1.964 ± 0.011 |
| AUAACU | 1.93 ± 0.034 | 1.88 ± 0.027 |
| AUAACC | 1.943 ± 0.0094 | 1.8816 ± 0.0015 |
| CGCGGU | 1.96 ± 0.025 | 1.87 ± 0.026 |
| GCAUCU | 1.98 ± 0.039 | 1.87 ± 0.004 |
| GCAUCA | 1.94 ± 0.041 | 1.89 ± 0.035 |
| AGGAAU | 1.906 ± 0.017 | 1.739 ± 0.0039 |
| CUUCCA | 1.93 ± 0.043 | 1.91 ± 0.091 |
| AUCUAC | 1.9 ± 0.12 | 1.855 ± 0.013 |
| GGAGUA | 1.896 ± 0.009 | 1.77 ± 0.018 |
| UCUCCU | 1.99 ± 0.059 | 1.87 ± 0.028 |
| UCUCCC | 1.98 ± 0.14 | 1.77 ± 0.022 |
